Results published in publication PMC12867151.

Target: human immune complexes (ICs): heat-aggregated human IgG (human)

Row | neutrophil adhesion on IC-coated microcapillaries with adhered platelets at 2 dyn/cm^2; neutrophils preincubated with a blocking antibody against FcγRIIA; inhibition against the isotype control (% inhibition of neutrophil adhesion) | neutrophil adhesion on IC-coated microcapillaries with adhered platelets at 2 dyn/cm^2; neutrophils preincubated with a blocking antibody against FcγRIIIB; inhibition against the isotype control (% inhibition of neutrophil adhesion) | Substance
1 | 86.3 |  | Fcγ receptor 2a (FcγRIIA), human, on human platelets (from UniProt P12318 34-317)
2 |  | 63.8 | FcγRIIIB, human, on neutrophils (from UniProt O75015 17-200) (receptor)
